Columns and labels:
BubR1 = assay: ITC; unphosphorylated peptide …
BubR1-p = assay: ITC; doubly phosphorylated peptide KLpSPIIEDpSR
[1] = target: Bub1 peptides encompassing the putative PP2A-B56 binding motif (amino acids 654-FSPIQE-659) (human, UniProt O43683); assay: ITC; doubly phosphorylated Bub1 peptide KFpSPIQEKpSP

- Kd (BubR1): 4.6 µM
- Kd (BubR1-p): 0.12 µM
- Kd [1]: 41 µM
B1: B56α (natural protein)
chain: not shown

Reference: PMC10155811 (2022)
